Data: the array DNA melting data of Ke et al.

experiment: melting temperature; melt of duplexes; conditions: sodium 0.0675 M; strand 1 µM

Substance	Tm
CGACGTGCATCATGTGCTG+CAGCACATATTGCACGTCG (((((((((..((((((((+))))))))..)))))))))	50.3 °C
CGACGTGCTATATGTGCTG+CAGCACATGTCGCACGTCG ((((((((.(.((((((((+)))))))).).))))))))	51.4 °C
CGACGTGCCTCATGTGCTG+CAGCACATAGCGCACGTCG ((((((((...((((((((+))))))))...))))))))	49.6 °C
CGACGTGCGCTATGTGCTG+CAGCACATTGTGCACGTCG ((((((((.(.((((((((+)))))))).).))))))))	51.9 °C
CGACGTGCGCCATGTGCTG+CAGCACATAGAGCACGTCG ((((((((.(.((((((((+)))))))).).))))))))	54.4 °C
CGACGTGCGTAATGTGCTG+CAGCACATTCCGCACGTCG (((((((((.(((((((((+))))))))).)))))))))	57.7 °C
CGACGTGCTTCATGTGCTG+CAGCACATCTCGCACGTCG ((((((((...((((((((+))))))))...))))))))	47 °C
CGACGTGCACTATGTGCTG+CAGCACATTTGGCACGTCG ((((((((...((((((((+))))))))...))))))))	45.3 °C
CGACGTGCCTGATGTGCTG+CAGCACATCCTGCACGTCG ((((((((..(((((((((+)))))))))..))))))))	53.1 °C
CGACGTGCTCTATGTGCTG+CAGCACATACGGCACGTCG ((((((((..(((((((((+)))))))))..))))))))	49.7 °C
CGACGTGCTTCATGTGCTG+CAGCACATCTTGCACGTCG ((((((((...((((((((+))))))))...))))))))	48.3 °C
CGACGTGCGTAATGTGCTG+CAGCACATTAAGCACGTCG ((((((((.((((((((((+)))))))))).))))))))	56.9 °C
CGACGTGCGGTATGTGCTG+CAGCACATCTTGCACGTCG ((((((((...((((((((+))))))))...))))))))	50.7 °C
CGACGTGCGCGATGTGCTG+CAGCACATTCAGCACGTCG ((((((((...((((((((+))))))))...))))))))	51.7 °C
CGACGTGCTAGATGTGCTG+CAGCACATGGGGCACGTCG ((((((((...((((((((+))))))))...))))))))	51 °C
CGACGTGCCTGATGTGCTG+CAGCACATTATGCACGTCG ((((((((.(.((((((((+)))))))).).))))))))	50.2 °C
CGACGTGCCTGATGTGCTG+CAGCACATACGGCACGTCG (((((((((..((((((((+))))))))..)))))))))	54.1 °C
CGACGTGCTAAATGTGCTG+CAGCACATCCGGCACGTCG ((((((((...((((((((+))))))))...))))))))	49.5 °C

Substance	Tm
CGACGTGCCCGATGTGCTG+CAGCACATAAAGCACGTCG ((((((((...((((((((+))))))))...))))))))	49.8 °C
CGACGTGCTAGATGTGCTG+CAGCACATGTTGCACGTCG ((((((((.(.((((((((+)))))))).).))))))))	52.2 °C
CGACGTGCGTAATGTGCTG+CAGCACATCGGGCACGTCG ((((((((...((((((((+))))))))...))))))))	49.4 °C
CGACGTGCTCAATGTGCTG+CAGCACATACGGCACGTCG ((((((((...((((((((+))))))))...))))))))	48.1 °C
CGACGTGCAGAATGTGCTG+CAGCACATAAGGCACGTCG ((((((((...((((((((+))))))))...))))))))	51 °C
CGACGTGCCGTATGTGCTG+CAGCACATGGTGCACGTCG ((((((((...((((((((+))))))))...))))))))	46.6 °C
CGACGTGCCATATGTGCTG+CAGCACATCACGCACGTCG ((((((((...((((((((+))))))))...))))))))	47.6 °C
CGACGTGCAGGATGTGCTG+CAGCACATTAGGCACGTCG ((((((((...((((((((+))))))))...))))))))	51.3 °C
CGACGTGCGTAATGTGCTG+CAGCACATGTAGCACGTCG ((((((((...((((((((+))))))))...))))))))	58.1 °C
CGACGTGCGCGATGTGCTG+CAGCACATGAAGCACGTCG ((((((((...((((((((+))))))))...))))))))	54.4 °C
CGACGTGCATTATGTGCTG+CAGCACATTGAGCACGTCG ((((((((...((((((((+))))))))...))))))))	49.5 °C
CGACGTGCAGTATGTGCTG+CAGCACATGTAGCACGTCG ((((((((...((((((((+))))))))...))))))))	49.8 °C
CGACGTGCTGTATGTGCTG+CAGCACATTCTGCACGTCG ((((((((.(.((((((((+)))))))).).))))))))	52 °C
CGACGTGCAGCATGTGCTG+CAGCACATGGGGCACGTCG ((((((((..(((((((((+)))))))))..))))))))	56.9 °C
CGACGTGCTAGATGTGCTG+CAGCACATCGGGCACGTCG ((((((((..(((((((((+)))))))))..))))))))	57 °C
CGACGTGCTATATGTGCTG+CAGCACATTACGCACGTCG ((((((((...((((((((+))))))))...))))))))	49.3 °C
CGACGTGCCCTATGTGCTG+CAGCACATTGTGCACGTCG ((((((((.(.((((((((+)))))))).).))))))))	47.8 °C
CGACGTGCTTGATGTGCTG+CAGCACATTTAGCACGTCG (((((((((..((((((((+))))))))..)))))))))	52.5 °C
